According to patent US20140322759:
Substitutions are numbered along the chain they refer to.

Columns and labels:
Assay in all cases: EMSA
[1] = target: T1, phi29 DNA polymerase Q497P Q497P (Bacillus phage phi29) (UniProt P03680); conditions: SD 50.2; unit not given (μM in assay); pH 7.9, 66 mM K-acetate, 30 C
T1 sequence: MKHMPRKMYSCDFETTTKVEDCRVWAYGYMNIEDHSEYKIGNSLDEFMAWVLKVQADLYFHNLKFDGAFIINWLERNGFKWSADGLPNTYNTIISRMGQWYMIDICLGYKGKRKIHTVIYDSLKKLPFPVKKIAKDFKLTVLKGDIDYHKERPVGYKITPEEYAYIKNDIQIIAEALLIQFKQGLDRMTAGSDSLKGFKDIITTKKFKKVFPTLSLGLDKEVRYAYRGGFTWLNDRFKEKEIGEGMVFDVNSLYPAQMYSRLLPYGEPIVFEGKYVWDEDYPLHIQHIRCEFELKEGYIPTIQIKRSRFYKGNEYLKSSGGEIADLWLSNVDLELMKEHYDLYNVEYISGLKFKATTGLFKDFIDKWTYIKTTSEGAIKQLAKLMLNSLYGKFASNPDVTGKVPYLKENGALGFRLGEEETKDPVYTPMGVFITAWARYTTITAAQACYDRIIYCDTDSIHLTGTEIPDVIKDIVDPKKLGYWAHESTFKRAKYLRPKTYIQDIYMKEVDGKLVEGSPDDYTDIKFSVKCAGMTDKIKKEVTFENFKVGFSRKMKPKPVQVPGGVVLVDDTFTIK

[2] = target: T2, phi29 DNA polymerase E515A E515A (Bacillus phage phi29) (UniProt P03680); conditions: SD 56.5; unit not given (μM in assay); pH 7.9, 66 mM K-acetate, 30 C
T2 sequence: T1 sequence with P497Q, E515A

[3] = target: T3, phi29 DNA polymerase M8R M8R (Bacillus phage phi29) (UniProt P03680); conditions: SD 2.1; unit not given (μM in assay); pH 7.9, 66 mM K-acetate, 30 C
T3 sequence: T1 sequence with M8R, P497Q

[4] = target: T4, phi29 DNA polymerase Mut_5 M8R,V51A,M97T,G197D,E221K,Q497P,K512E,F526L (Bacillus phage phi29) (UniProt P03680); conditions: SD 7.4; unit not given (μM in assay); pH 7.9, 66 mM K-acetate, 30 C
T4 sequence: T1 sequence with M8R, V51A, M97T, G197D, E221K, K512E, F526L

“GATCACAGTGAGTAC / TCTATTGTACTCACTGTGATC [15-mer/21-mer primer/template]” showed a Kd [1] of 73 µM, a Kd [2] of 97 µM and a Kd [3] of 43 µM. For the same sequence, the Kd [4] was 23 µM.
